Where a chain is given by its changes, count along the chain named. Names and notes keep the numbering of the source. Blank lines part the entries; values can stand above or below the binder they belong to.
Tests used:
[1] = target: T1, human PD-L1 (full-length, on cells) (human, UniProt Q9NZQ7 19-290); test: FACS on HEK293T cells expressing human PD-L1
T1 construct: whole, on cells; HEK293 cells stably expressing full-length human PD-L1
Method: (§1) HEK293T cells expressing human PD-L1 were incubated with chimeric anti-PD-L2 antibodies. Cells were washed and binding was detected with an FITC-labelled anti-rat IgG Ab (Thermo Fisher Scientific). Flow cytometric analyses were performed using a FACSCalibur flow cytometer (Becton Dickinson). PE-labelled anti-human PD-L1 clone MIH1 served as positive control. All peaks overlap except for the positive control in FIG. 7F.
(§2) The ability of anti-PD-L2 antibodies binding to mouse PD-L2, human PD-L1 or cyno PD-L2 was determined by FACS. HEK293 cells stably expressing full-length monkey PD-L2, mouse PD-L2 or human PD-L1 were established, subcloned and verified. For binding assay, 1.5×10⁵ cells in 100 μl of FACSwash buffer were incubated with individual anti-PD-L2 antibodies (0.5 μg/ml) for 30 min. After three times of washing, the cells were re-suspended in FACSwash buffer containing FITC-labelled goat-anti-rat IgG (Thermo Fisher, 1:1000) or APC-labelled goat-anti-ratIgG (Biolegend, Clone Poly4054) at a 1:2000 dilution for 20 min at 4° C., washed three times and subsequently subjected to FACS analysis. FACS data was analysed using FlowJo Software and depicted as histograms including secondary antibody only controls.

[2] = target: T2, mouse PD-L2 (full-length, on cells) (mouse, UniProt Q9WUL5 20-247); test: FACS on HEK293T cells expressing mouse PD-L2
T2 construct: whole, on cells; HEK293 cells stably expressing full-length mouse PD-L2
T2 sequence (looked up): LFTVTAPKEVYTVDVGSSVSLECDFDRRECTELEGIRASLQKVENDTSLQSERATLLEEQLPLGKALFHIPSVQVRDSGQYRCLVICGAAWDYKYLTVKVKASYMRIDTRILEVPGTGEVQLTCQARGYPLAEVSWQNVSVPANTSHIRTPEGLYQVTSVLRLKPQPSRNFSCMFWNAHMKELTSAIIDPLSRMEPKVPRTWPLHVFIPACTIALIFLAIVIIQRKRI
Method: as §1, with “mouse PD-L2” for “human PD-L1”, “anti-mouse PD-L2” for “anti-human PD-L1”, “TY25” for “MIH1”, “6F.” for “7F.”
as §2

[3] = target: T3, human PD-L2 (full-length, on cells) (human, UniProt Q9BQ51 20-273); test: FACS binding on cells expressing human PD-L2 (per the examples)
T3 construct: whole, on cells; CHO-K1 cells stably expressing full-length human PD-L2; also endogenous on NCI-H226 and transfected in Jurkat cells; also called hPD-L2; CHO-K1/hPD-L2
T3 sequence (looked up): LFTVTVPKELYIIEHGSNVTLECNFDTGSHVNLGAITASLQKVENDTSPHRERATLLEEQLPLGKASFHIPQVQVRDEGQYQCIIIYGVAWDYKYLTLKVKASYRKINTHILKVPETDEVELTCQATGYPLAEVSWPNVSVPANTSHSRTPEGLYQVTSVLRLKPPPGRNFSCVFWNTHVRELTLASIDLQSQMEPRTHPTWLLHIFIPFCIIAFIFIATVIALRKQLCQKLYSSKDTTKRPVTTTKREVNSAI

[4] = target: T4, human PD-L2 (full-length, on cells) (human, UniProt Q9BQ51 20-273); test: FACS binding to CHO-K1 cells expressing human PD-L2
T4 chain: T3 sequence (looked up)
Procedure, shortened: (§3)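 Binding EC50 values were derived in GraphPad Prism by non-linear curve fitting of percentage of maximal binding versus concentration. The binding data came from flow cytometry on a BD FACSCalibur, using CHO-K1 cells stably expressing full-length human PD-L2. Detection used APC-labelled anti-rat IgG or anti-human IgG Fc, according to the antibody format, applied for 20 min at 4° C.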

[5] = target: T4, human PD-L2 (full-length, on cells); test: FACS, NCI-H226 cells
Procedure, shortened: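 Binding EC50 values come from non-linear fits, made in GraphPad Prism, of percentage of maximal binding plotted against concentration. The underlying binding to endogenous PD-L2 was measured by BD FACSCalibur flow cytometry on 1.5×10⁵ NCI-H226 human lung squamous carcinoma cells, with detection by APC-labelled goat anti-rat IgG (1:2000, 20 min, 4° C).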

[6] = target: T3, human PD-L2 (full-length, on cells); test: hybridoma supernatant screen on cells expressing human PD-L2
[7] = target: T1, human PD-L1 (full-length, on cells); test: FACS on HEK293 cells stably expressing full-length human PD-L1
Method: as §2

[8] = target: T2, mouse PD-L2 (full-length, on cells); test: FACS on HEK293 cells stably expressing full-length mouse PD-L2
Method: as §2

[9] = target: T4, human PD-L2 (full-length, on cells); test: FACS, CHO-K1 expressing human PD-L2
Procedure, shortened: as §3

[10] = target: T5, recombinant human PD-L2-Fc-biotin (human, UniProt Q9BQ51 20-220, biotin); test: blocking of hPD-L2 binding to HEK293-hPD-1 cells
T5 chain: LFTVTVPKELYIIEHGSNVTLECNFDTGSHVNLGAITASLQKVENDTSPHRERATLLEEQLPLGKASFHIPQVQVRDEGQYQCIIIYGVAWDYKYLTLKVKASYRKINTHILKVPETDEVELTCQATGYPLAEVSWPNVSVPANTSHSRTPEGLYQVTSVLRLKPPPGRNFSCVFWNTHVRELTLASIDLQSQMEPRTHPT
Procedure, shortened: (§4)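 After 60 min at 4° C in 100 μl, mixtures of serially diluted antibody (0.03 ng/ml-0.5 μg/ml) and recombinant human PD-L2-Fc-biotin (5 ng/ml, 100 pM) were given 30 min at 4° C on 1.5×10⁵ HEK293 cells stably expressing human PD-1. Fluorochrome-conjugated streptavidin and flow cytometry measured the bound ligand against control wells marking 0% and 100% binding. IC50 values came from non-linear curve fitting in GraphPad Prism.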

[11] = target: T4, human PD-L2 (full-length, on cells); test: blocking of hPD-1 binding to CHO-K1/hPD-L2 cells
Procedure, shortened: (§5)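 CHO-K1 cells (1.5×10⁵) stably expressing human PD-L2 were incubated with serially diluted antibody (0.25 ng/ml-4 μg/ml) for 30 min at 4° C and washed. They were then incubated with 0.5 μg/ml recombinant human PD-1-mouse Fc for 30 min at 4° C and stained with fluorochrome-conjugated anti-mouse IgG2a (1:200) for 20 min at 4° C. Bound PD-1 was read by flow cytometry, with unspecific IgG wells setting 0% and 100% binding. IC50 came from non-linear curve fitting in GraphPad Prism.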

[12] = target: T4, human PD-L2 (full-length, on cells); test: FACS binding to CHO-K1 cells expressing human PD-L2
Procedure, shortened: as §3

[13] = target: T4, human PD-L2 (full-length, on cells); test: FACS blocking of PD-1 binding to CHO-K1/hPD-L2; high antigen concentration
Procedure, shortened: as §5

[14] = target: T5, recombinant human PD-L2-Fc-biotin; test: FACS blocking of hPD-L2 binding to HEK293T-hPD-1; low antigen concentration
Procedure, shortened: as §4

T1 sequence (Q9NZQ7 19-290): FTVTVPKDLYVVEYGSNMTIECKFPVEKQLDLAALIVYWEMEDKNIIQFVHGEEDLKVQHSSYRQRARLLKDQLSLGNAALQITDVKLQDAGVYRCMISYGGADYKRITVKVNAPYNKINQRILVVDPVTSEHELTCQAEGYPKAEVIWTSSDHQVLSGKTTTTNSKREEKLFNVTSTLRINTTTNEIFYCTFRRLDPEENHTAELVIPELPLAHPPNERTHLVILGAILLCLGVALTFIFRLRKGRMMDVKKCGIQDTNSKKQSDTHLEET

binding result [1]: no binding
binding result [2]: no binding
binding result [3]: binds
EC50 [4]: 320 pM
B1: 10D1-G1 N31Q.N92Q.LC (antibody, V domains shown)
VH: QVQLQESGPGLVKPSGTLSLTCAVSGGSISSSYWWSWVRQPPGKGLEWIGEIFHIGSTNYNPSLRSRVTISVVKSKNQFSLNLNSVTAADTAVYFCARVSGGYGYFSGMDVWGQGTTVTVSS
VL: DIQMTQSPSSLSASVGDRVTITCRASQGIRQDLGWYQQKPGKAPKRLIYGASSLQSGVPSRFSGSGSGTEFTLTISSLQPEDFATYYCLQHQSYPRTFGQGTKVEIK
notes: Optimized variant of 10D1-G1; also called 10D1-G1 N31Q.N920.LC

EC50 [5]: 1520 pM
binding result [6]: binds
binding result [7]: no binding (tested: 0.5 µg/ml)
binding result [8]: no binding (tested: 0.5 µg/ml)
EC50 [9]: 2180 pM
IC50 [10]: 17 pM
IC50 [11]: 940 pM
EC50 [12]: 1090 pM
IC50 [13]: 2020 pM
IC50 [14]: 56.3 pM
B2: 8B5-B1 (antibody, V domains shown)
VH: EVQLLESGGGLVQPGGSLKLSCAASGFTFSSYAMFWVRQAPGEGLAWVSAITGSGDHTYYADSVKDHFTISRDNSKNTLYLQMNSLKAEDTAVYYCAKDASGNSYGFPYWYFDLWGRGTLVTVSS
VL: QSALTQPASVSGSPGQSITISCTGTSSDVAGYNFVSWYQHHPGKTPKLMIYDVTNRPSGVSTRFSGSKSGNTASLTISGLQAEDEADYYCSSFTSATTLVFGGGTKLTVLG
notes: Both formats under this entry

EC50 [5]: 134 pM
binding result [7]: no binding (tested: 0.5 µg/ml)
binding result [8]: no binding (tested: 0.5 µg/ml)
binding result [3]: binds
EC50 [9]: 485 pM
IC50 [10]: 20 pM
IC50 [11]: 530 pM
EC50 [12]: 450 pM
IC50 [13]: 612 pM
IC50 [14]: 21.5 pM
B3: 2C4-E4 (antibody, V domains shown)
VH: QVQLVQSGAEVKKPGASVKVSCKASGYTFTGYVMHWVRQAPGQRLEWMGWINADNGITKYSQKFQGRVTITRDTSASTAYMELTNLRSEDTAVYYCARATRGFGEFYFDYWGQGNLVTVSS
VL: DIQMTQSPSTLSASVGDRVTITCRASQTISSWLAWYQQKPGKAPNLLIYKASSLESGVPSRFSGSGSGTEFTLTISSLQPDDFATYYCQQYYSYWTFGQGTKVEIK
notes: Both formats under this entry

EC50 [5]: 131 pM
binding result [6]: binds
binding result [7]: no binding (tested: 0.5 µg/ml)
binding result [8]: no binding (tested: 0.5 µg/ml)
EC50 [9]: 346 pM
IC50 [10]: 12 pM
IC50 [11]: 410 pM
EC50 [12]: 810 pM
IC50 [13]: 527 pM
IC50 [14]: 14.9 pM
B4: 11C11-H5 (antibody, V domains shown)
VH: QVQLVESGGGVVQPGRSLRLSCAASGFAFSAYGMHWVRQAPGKGLEWVAISWYDGSNNYHADSVKGRFTISRDSSKNTLYLQMNSLRAEDTAVYYCAKSIGVARHYYYGMDVWGQGTTVTVSS
VL: SYELTQPPSVSVSPGQTASITCSGEELGDKYACWYQQKPGQSPVLVIYQDSKRPSGIPERFSGSNSGNAATLTISGTQAMDEADYYCQAWDSITVVFGGGTKLTVLG
notes: Both formats under this entry

EC50 [5]: 102 pM
binding result [7]: no binding (tested: 0.5 µg/ml)
binding result [8]: no binding (tested: 0.5 µg/ml)
binding result [3]: binds
EC50 [9]: 311 pM
IC50 [10]: 13 pM
IC50 [11]: 430 pM
EC50 [12]: 440 pM
IC50 [13]: 454 pM
IC50 [14]: 15.1 pM
B5: 19C3-B3 (antibody, V domains shown)
VH: B4 VH
VL: B4 VL with V44L, V96I
notes: Both formats under this entry; also called 19C3-C3

EC50 [5]: 254 pM
binding result [6]: binds
binding result [7]: no binding (tested: 0.5 µg/ml)
binding result [8]: no binding (tested: 0.5 µg/ml)
EC50 [9]: 600 pM
IC50 [10]: 30 pM
IC50 [11]: 490 pM
EC50 [12]: 620 pM
IC50 [13]: 706 pM
IC50 [14]: 40.8 pM
B6: 1A1-C2 (antibody, V domains shown)
VH: QVQLQESGPGLVKPSGTLSLTCAVSGGSIGSSYWWTWIRQSPGKGLEWIGEIFHSGPTNYTPSLKSRVTISVDKSKNQFSLQLRSVTAADTAVYYCARTTGTTGFYYGMDVWGQGTTVTVSS
VL: EVVLTQSPATLYVTPGERVTLSCRASQSVSSNLAWYQQKPGQAPRLLIYGASTRATGIPARFSGSGSGTEFTLTISSLQSEDFAVYYCQQFNNWPRTFGLGTKVEIT
